Data: US6808930B1, “Therapeutic agents” (priority 1997, dated 2004)

Legend:
[1] = test system: HRTEC cells; test: Cell surface binding of 125I-labelled protein, cell associated radioactivity; set-up: species or system human; settings: 30 min exposure to 2×10^6 cpm of 125I-labelled protein
Experimental: (§1) Cell surface binding of MAL was also quantitated as the cell associated radioactivity during the first 30 min after addition of ^125I-labelled MAL to the cells (FIG. 2B). […]

[2] = test system: A549 cells; test: as above; set-up: species or system human; settings: 30 min exposure to 2×10^6 cpm of 125I-labelled protein
Experimental: as §1

[3] = test system: HRTEC cells; test: Subcellular fractionation of cells exposed to 125I-labelled protein; type: cell-based, human
Experimental: (§2) The intracellular distribution of MAL was further analysed in cells exposed to ^125I-labelled MAL with ^[…] α-lactalbumin and IgG as controls (FIG. 4). Subcellular fractions were prepared after mechanic disruption of the cells and the amount of radiolabelled MAL in each fraction was determined in relation to the total cell-associated radioactivity measured prior to disruption of the cells. Fraction P1 contained mostly cell nuclei, P2 contained plasma-Golgi-, ER-membranes and mitochondria, P3 contained small vesicles and the supernatant. Fraction S contained the cytosolic proteins. The purity of the fractions was determined by quantitation of specific markers (DNA, alkaline phosphatase, RNA and catalase).
(§3) Specifically, cellular subfractionation was performed as described (J. Graham., Isolation of subcellular organelles and membranes., p161-1019. In D. Rickwood ed., Centrifugation, a practical approach, 2nd ed. IRL Press, Washington D.C.). L1210, A549 or HRTEC cells in suspension (3×10^6 cells/ml, 100 μla were incubated with 1×10^6 cpr of ^125I-labelled MAL, ALA or IgG for various times at 37° C. The cells were washed three times with ice-cold PBS and the supernatants were discarded. The cells were suspended in 500 μl of homogenisation buffer (10 mM Tris-HCl, pH 7.8, 5 mM MgCl2 and 2 mM CaCl2 for L1210 cells and 0.15M NaCl, 2 mM EDTA, pH 7.5 for A549 cells), and homogenised by 50 strokes in a Dounce homogenizer (Thomas, Philadelphia, USA) with pestle size 415. Sucrose was added to a final concentration of […] and the homogenate was centrifuged at 100×g for 25 min at RT. The first pellet contained nuclei, large mitochondria and large sheets of plasma membrane. The remaining supernatant was further centrifuged at 12 000×g for 30 min at 4° C. resulting in a second pellet containing mitochondria endoplasmic reticulum, plasma membrane and cytoplasmic organelles. The supernatant was finally centrifuged at 150,000×g for 2 h at 4° C. resulting in a pellet containing small vesicles, endoplasmic reticulum and a supernatant containing cytosolic proteins.

[4] = test system: A549 cells; test: as above; type: cell-based, human
Experimental: as §2, §3

[5] = test system: L1210 cells; test: Cell viability by trypan blue exclusion; type: cell-based, murine; settings: L1210 cell line
Experimental: (§4) Remaining cells were analysed for DNA fragmentation.

[6] = test system: HRTEC cells; test: Nuclear uptake of biotinylated protein, confocal microscopy; type: cell-based, human; settings: biotinylated MAL (1 mg/ml elsewhere in the source)
Experimental: […] Sander et al., Immunol. Rev. (1991) 119: 65-92) at room temperature, washed in PBS, and permeabilized with 0.1% saponin in PBS. FITC conjugated streptavidin (diluted 1:100 in 0.1% saponin) was added and the cells were incubated for 30 min at room temperature. The cells were washed twice in PBS-saponin and once in PBS, mounted on a glass slide and analysed in a Bio-Rad 1024 laser scanning confocal equipment (Bio Rad Laboratories, Hemel-Hempstead, UK) attached to a Nikon Diaphot inverted microscope.

[7] = test system: L1210 cells; test: Subcellular fractionation of cells exposed to 125I-labelled protein; type: cell-based, murine
Experimental: as §2, §3

[8] = test system: L1210, A549 and HRTEC nuclei; test: DNA fragmentation in isolated nuclei; type: cell-based
Experimental: Nuclei were purified from L1210, A549 and HRTEC cells and incubated with low concentrations of MAL (0.2 and 0.4 mg/ml). The formation of HMW and oligonucleosome length DNA fragments was examined.
A549, L1210 and HRTEC nuclei were isolated from homogenised cells. Pellet 1 from the homogenisation was washed twice in nuclei buffer for 20 min at 100×g and suspended in nuclei buffer for experiments. Rat liver nuclei was isolated.
A549, L1210 or HRTEC nuclei in suspension were placed in individual wells in a 24-well plate ([…]), mixed with MAL, α-lactalbumin, lactoferrin or BSA (100 μl in nucleus buffer), incubated at 37° C. for 1 hour (L1210,) or 2 hours (A549 and HRTEC), harvested by aspiration, analysed for DNA fragmentation as described above.

[9] = test system: digitonin-permeabilized L1210, A549 and HRTEC cells; test: Nuclear uptake of biotinylated protein in digitonin-permeabilized cells; type: cell-based; settings: digitonin treated cells, biotinylated MAL
Experimental: Briefly, 1×10^6 cells were incubated in 100 μl of nuclear transport buffer (NTB), with the addition of 1 μg/ml each of leupeptin, aprotinin, antipain, and 40 μg/ml of digitonin for 5 min at room temperature and washed by centrifugation at 320×g for 10 min in NTB. Biotinylated protein (5 μl, 5 mg/ml) was added to the cells in a total volume of 100 μl NTB supplemented with phosphcreatin, creatine phosphokinase and ATP, incubated for various time at RT and washed twice in NTB by centrifugation at 320×g for 10 min. The cells were treated with 0.2% Triton-X100 in NTB for 6 min and washed finally 1:100 dilution of fluorescein-conjugated strepatvidin was added for 30 min at RT and washed. The cells were then inspected by fluorescence microscopy in a Nikon Microphot (Japan) microscope or by laser scanning confocal microscopy in a BioRad MRC-1024 instrument.
Digitonin permeabilizes the plasma nembrane, but leaves the nuclear membrane intact. […] Human IgG and monomeric α-lactalbumin were used as controls.
The digitonin-permeabilized L1210 cells were preincubated with 50 μg/ml of WGA for 20 minutes, washed and exposed to biotinylated MAL. IgG and α-lactalbumin were used as controls (FIG. 7).
The cells pretreated with WGA were then washed by centrifugation in NTB at 320×g for 10 min before addition of protein.

[10] = test system: HRTEC cells; test: DNA fragmentation by gel electrophoresis and FIGE; type: cell-based, human; settings: 4 mg/ml for 24 h
Experimental: as §4

[11] = test system: A549 cells; test: DNA fragmentation by gel electrophoresis and FIGE; type: cell-based, human
Experimental: as §4

[12] = isolated nuclei from the three cell types, 0.2 and 0.4 mg/ml

B1: MAL: protein complex from human milk casein containing oligomeric forms of α-lactalbumin; the apoptosis-inducing fraction (protein, UniProt P00709 20-142, looked up)
Alpha-lactalbumin: KQFTKCELSQLLKDIDGYGGIALPELICTMFHTSGYDTQAIVENNESTEYGLFQISNKLWCKSSQVPQSRNICDISCDKFLDDDITDDIMCAKKILDIKGIDYWLAHKALCTEKLEQWLCEKL
modifications: oligomeric form from milk casein
notes: protein complex from human milk casein containing oligomeric forms of α-lactalbumin; the apoptosis-inducing fraction
[1]
  cell surface binding, cell associated radioactivity: 18 000 cpm
[2]
  cell surface binding, cell associated radioactivity: 20 000 cpm
[3]; 24 h, 125I-labelled
  share of total cell associated radioactivity in nuclear fraction (P1): 16%
[3]; 24 h, denominator in brackets
  total cell associated radioactivity: 14000
[3]; 24 h, numerator in brackets
  radioactivity in nuclear fraction (P1): 2200
[3]; final time-point
  radioactivity in cytosolic fraction: 8600 cpm
  radioactivity in pellet 2: 2100 cpm
  radioactivity in pellet 3: 1100 cpm
  share of radioactivity in cytosolic fraction: 61%
  share of radioactivity in pellet 2: 15%
  share of radioactivity in pellet 3: 8%
[4]; 24 h, denominator in brackets
  total cell associated radioactivity: 27000
[4]; 24 h, numerator in brackets
  radioactivity in nuclear fraction (P1): 13700
[4]; final time-point
  radioactivity in cytosolic fraction: 6800 cpm
  radioactivity in pellet 2: 5100 cpm
  radioactivity in pellet 3: 1400 cpm
  share of radioactivity in cytosolic fraction: 25%
  share of radioactivity in pellet 2: 19%
  share of radioactivity in pellet 3: 5%
[5]
  sensitivity to MAL-induced apoptosis: highly sensitive
[6]
  nuclear uptake: Nuclear uptake was not observed
[7]; 6 h, 125I-labelled
  share of total cell associated radioactivity in nuclear fraction (P1): about 78%
[7]; 6 h, 125I-labelled, denominator in brackets
  total cell associated radioactivity: 44000
[7]; 6 h, 125I-labelled, numerator in brackets
  radioactivity in nuclear fraction (P1): 34200
[7]; final time-point
  radioactivity in cytosolic fraction: 4500 cpm
  radioactivity in pellet 2: 4500 cpm
  radioactivity in pellet 3: 800 cpm
  share of radioactivity in cytosolic fraction: 10%
  share of radioactivity in pellet 2: 10%
  share of radioactivity in pellet 3: 2%
[8]; isolated nuclei
  induction of DNA fragmentation in isolated nuclei: could induce DNA fragmentation
[8]; [12]
  time after which formation of HMW DNA fragments was enhanced: one
  time after which formation of oligonucleosome length fragments was enhanced: 2 h
[9]
  time at which maximum nuclear levels were reached: 20 min
[10]
  HMW DNA fragmentation: did not undergo HMW DNA fragmentation
[11]
  concentration at which HMW fragmentation was maximal: 1.5 mg/mL
  concentration at which no chromosomal DNA was seen: 2.5 mg/mL
  oligonucleosomal DNA fragmentation: No oligonculeosomal fragmentation was detected
[11]; 1.0 mg/ml
  time at which HMW fragmentation was first detected: 6 h
